We go through two molecules from patent US20120076728A1 (University of California, published 2012).

In experiment [1] the target is carcinoembryonic antigen (CEA) expressed by LS174T human colon carcinoma tumors (human (LS174T human colon carcinoma cells)) (UniProt P06731). Description: cell-based or functional assay.
Experiment [2] has as its target T1, carcinoembryonic antigen (CEA), form not stated (UniProt P06731 35-685, limits assumed).
T1 sequence (looked up): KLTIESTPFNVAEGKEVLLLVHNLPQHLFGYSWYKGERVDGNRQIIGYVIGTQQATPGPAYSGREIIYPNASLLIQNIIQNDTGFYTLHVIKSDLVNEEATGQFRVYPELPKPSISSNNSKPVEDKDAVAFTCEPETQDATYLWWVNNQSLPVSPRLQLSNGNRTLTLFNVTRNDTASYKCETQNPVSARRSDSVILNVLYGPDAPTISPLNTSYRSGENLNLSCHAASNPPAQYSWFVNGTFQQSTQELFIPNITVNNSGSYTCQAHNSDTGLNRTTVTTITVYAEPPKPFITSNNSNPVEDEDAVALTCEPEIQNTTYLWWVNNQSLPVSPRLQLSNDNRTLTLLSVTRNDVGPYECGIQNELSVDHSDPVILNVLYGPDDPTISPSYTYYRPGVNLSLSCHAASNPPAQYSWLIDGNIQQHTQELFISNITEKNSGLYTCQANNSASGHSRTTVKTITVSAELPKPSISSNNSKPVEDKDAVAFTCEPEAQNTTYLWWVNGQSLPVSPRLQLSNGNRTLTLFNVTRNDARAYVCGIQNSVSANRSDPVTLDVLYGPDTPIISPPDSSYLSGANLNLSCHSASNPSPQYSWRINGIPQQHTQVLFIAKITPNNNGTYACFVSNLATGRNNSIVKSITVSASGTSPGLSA
As to the kind of experiment: not stated; given as a property of the peptide.

No end group written: not given here.

In general, Kd refers to a measure of binding affinity in units of concentration. Read a high Kd as weaker binding.

For the molecule anti-CEA T84.66 diabody (Db), in experiment [1], the CEA positive-to-negative tumor uptake ratio at 51 h came to 13.

B1: CEA specific, cyclic peptide SDWVCEFIKSQWFCNVLASG (peptide)
peptide: SDWVCEFIKSQWFCNVLASG-HyNic
modifications: also: cyclic, bond type and places not given here
notes: also called anti-CEA peptide; CEA specific peptide
The molecule B1 had a dissociation constant (Kd) in experiment [2] of 160 nM.
